Results taken from patent US20030194743A1 (DYAX, published 2003).
Primed or numbered codes have the meaning given here. No end group written: not given here. FITC′ = fluorescein label (fitc)

The binders below were run against T1, B lymphocyte stimulator protein (BLyS) (UniProt Q9Y275 134-285, biotinylated (b-BLyS) in phage screening and phage ELISA; unlabeled in fluorescence anisotropy and column tests) (assay: not stated at this place (fluorescence anisotropy elsewhere); reference in indirect phage ELISA).
T1 construct: also called b-BLyS; biotinylated recombinant BLyS

Row | Kd [nM] | Binder
1 | 700 | VPFCDLLTKHCFEA (also called TN8-01-B07) [453-01-B07]

These binders were tested against T1, B lymphocyte stimulator protein (BLyS) (assay: phage ELISA on biotinylated BLyS).

Row | Binder | ELISA signal [OD630]
2 | SRLCHMDELTHVCVHF (also called TN10-01-F05) [453-01-F05] | 1
3 | FHPCDMLTGIWCQPN (also called TN9-01-G06) [453-01-G06] | 1.2
4 | GGNCYTDSLTKLHFCMGD (also called TN12-01-H05) [453-01-H05] | 1
5 | VPFCDLLTKHCFEA (also called TN8-01-B07) [453-01-B07] | 1.4
6 | AMKCYFPWECANG (also called TN7-01-D11) [453-01-D11] | 1
7 | KSKCFFPWECQQA (also called TN7-01-B04) [453-01-B04] | 0.8
8 | LNACDIVHPNYCSGM (also called TN9-01-011) [453-01-G11] | 0.8
9 | KEPCYFYWECAVS (also called TN7-01-A08) [453-01-A08] | 1.2
10 | GIYDKLTRAWLP (also called PhD-02-B02) [453-02-B02] | 0.6
11 | HVDCLLHPKACYKY (also called TN8-01-C08) [453-01-C08] | 1.2

Next, values leading:

Row | ELISA signal [OD630] | Binder
12 | 1 | WTDSLTGLWFPD (also called PhD-02-C04) [453-02-C04]
13 | 0.8 | YFDQLTHLSIKK (also called PhD-02-D05) [453-02-D05]
14 | 0.8 | GYDVLTKLYFVP (also called PhD-02-C12) [453-02-C12]
15 | 0.6 | VHYDSLTKMWTR (also called PhD-02-B05) [453-02-B05]

These binders were tested against T1, B lymphocyte stimulator protein (BLyS) (assay: fluorescence anisotropy).

Row | Kd [nM] | Binder
16 | 171 | Ac-WYDPLTKLWLGGK(FITC′) (synthetic) [DX876]

Molecular target: T1, B lymphocyte stimulator protein (BLyS)
Test: fluorescence anisotropy
Remark: another data set of the same source

Row | Kd [nM] | Binder
17 | 3000 | Ac-WTDSLTGLWFPDGGPGPEGGGK (also: fluorescein-labeled, site not given here, synthetic) [DX221]
